Measured values from patent publication US20180155451A1 (published 2018).

T1: FcγRIIb extracellular domain with C-terminal His tag (human, UniProt P31994 43-217)
T1 construct: extracellular domain; expressed in FreeStyle293 cells; analyte in the Biacore assay; also called FcgRIIb; 2b; not shown: His tag at the C terminus
T1 sequence (looked up): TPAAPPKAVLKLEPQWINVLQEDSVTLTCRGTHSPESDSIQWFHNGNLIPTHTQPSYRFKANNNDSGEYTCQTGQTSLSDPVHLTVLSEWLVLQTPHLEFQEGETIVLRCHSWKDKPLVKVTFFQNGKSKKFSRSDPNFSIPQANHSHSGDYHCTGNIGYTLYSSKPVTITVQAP


Target: T1, FcγRIIb extracellular domain with …
Test: SPR (Biacore), captured antibody, FcγRIIb analyte; binding relative to GpH7-A5/GpH7-B3/GpL16-k0 = 100

He/Con_2b	Binder
108 % of control	GpH7-A5/GpH7-B3 variant K334_02A/GpL16-k0 (antibody, human IgG1, kappa, heterodimerized; mutation in the B3 H chain only; also called He Ab K334_02A) heavy 1: not shown heavy 2: not shown light: DIVMTQSPLSLPVTPGEPASISCQASESLVHSNRNTYLHWYLQKPGQSPQLLIYKVSNRFSGVPDRFSGSGSGTDFTLKISRVEAEDVGVYYCSQNTHVPPTFGQGTKVEIERTVAAPSVFIFPPSDEQLKSGTASVVCLLNNFYPREAKVQWKVDNALQSGNSQESVTEQDSKDSTYSLSSTLTLSKADYEKHKVYACEVTHQGLSSPVTKSFNRGEC
139 % of control	GpH7-A5/GpH7-B3 variant K326_19Q/GpL16-k0 (antibody, human IgG1, kappa, heterodimerized; mutation in the B3 H chain only; label printed K326_190, read as K326_19Q; also called He Ab K326_19Q) heavy 1: not shown heavy 2: not shown light: DIVMTQSPLSLPVTPGEPASISCQASESLVHSNRNTYLHWYLQKPGQSPQLLIYKVSNRFSGVPDRFSGSGSGTDFTLKISRVEAEDVGVYYCSQNTHVPPTFGQGTKVEIERTVAAPSVFIFPPSDEQLKSGTASVVCLLNNFYPREAKVQWKVDNALQSGNSQESVTEQDSKDSTYSLSSTLTLSKADYEKHKVYACEVTHQGLSSPVTKSFNRGEC
101 % of control	GpH7-A5/GpH7-B3 variant I332_15Y/GpL16-k0 (antibody, human IgG1, kappa, heterodimerized; mutation in the B3 H chain only; also called He Ab I332_15Y) heavy 1: not shown heavy 2: not shown light: DIVMTQSPLSLPVTPGEPASISCQASESLVHSNRNTYLHWYLQKPGQSPQLLIYKVSNRFSGVPDRFSGSGSGTDFTLKISRVEAEDVGVYYCSQNTHVPPTFGQGTKVEIERTVAAPSVFIFPPSDEQLKSGTASVVCLLNNFYPREAKVQWKVDNALQSGNSQESVTEQDSKDSTYSLSSTLTLSKADYEKHKVYACEVTHQGLSSPVTKSFNRGEC
105 % of control	GpH7-A5/GpH7-B3 variant K334_05P/GpL16-k0 (antibody, human IgG1, kappa, heterodimerized; mutation in the B3 H chain only; also called He Ab K334_05P) heavy 1: not shown heavy 2: not shown light: DIVMTQSPLSLPVTPGEPASISCQASESLVHSNRNTYLHWYLQKPGQSPQLLIYKVSNRFSGVPDRFSGSGSGTDFTLKISRVEAEDVGVYYCSQNTHVPPTFGQGTKVEIERTVAAPSVFIFPPSDEQLKSGTASVVCLLNNFYPREAKVQWKVDNALQSGNSQESVTEQDSKDSTYSLSSTLTLSKADYEKHKVYACEVTHQGLSSPVTKSFNRGEC
200 % of control	GpH7-A5/GpH7-B3 variant K326_10E/GpL16-k0 (antibody, human IgG1, kappa, heterodimerized; mutation in the B3 H chain only; also called He Ab K326_10E) heavy 1: not shown heavy 2: not shown light: DIVMTQSPLSLPVTPGEPASISCQASESLVHSNRNTYLHWYLQKPGQSPQLLIYKVSNRFSGVPDRFSGSGSGTDFTLKISRVEAEDVGVYYCSQNTHVPPTFGQGTKVEIERTVAAPSVFIFPPSDEQLKSGTASVVCLLNNFYPREAKVQWKVDNALQSGNSQESVTEQDSKDSTYSLSSTLTLSKADYEKHKVYACEVTHQGLSSPVTKSFNRGEC
119 % of control	GpH7-A5/GpH7-B3 variant K326_16H/GpL16-k0 (antibody, human IgG1, kappa, heterodimerized; mutation in the B3 H chain only; also called He Ab K326_16H) heavy 1: not shown heavy 2: not shown light: DIVMTQSPLSLPVTPGEPASISCQASESLVHSNRNTYLHWYLQKPGQSPQLLIYKVSNRFSGVPDRFSGSGSGTDFTLKISRVEAEDVGVYYCSQNTHVPPTFGQGTKVEIERTVAAPSVFIFPPSDEQLKSGTASVVCLLNNFYPREAKVQWKVDNALQSGNSQESVTEQDSKDSTYSLSSTLTLSKADYEKHKVYACEVTHQGLSSPVTKSFNRGEC
193 % of control	GpH7-A5/GpH7-B3 variant K326_09D/GpL16-k0 (antibody, human IgG1, kappa, heterodimerized; mutation in the B3 H chain only; also called He Ab K326_09D) heavy 1: not shown heavy 2: not shown light: DIVMTQSPLSLPVTPGEPASISCQASESLVHSNRNTYLHWYLQKPGQSPQLLIYKVSNRFSGVPDRFSGSGSGTDFTLKISRVEAEDVGVYYCSQNTHVPPTFGQGTKVEIERTVAAPSVFIFPPSDEQLKSGTASVVCLLNNFYPREAKVQWKVDNALQSGNSQESVTEQDSKDSTYSLSSTLTLSKADYEKHKVYACEVTHQGLSSPVTKSFNRGEC
111 % of control	GpH7-A5/GpH7-B3 variant K334_13S/GpL16-k0 (antibody, human IgG1, kappa, heterodimerized; mutation in the B3 H chain only; also called He Ab K334_13S) heavy 1: not shown heavy 2: not shown light: DIVMTQSPLSLPVTPGEPASISCQASESLVHSNRNTYLHWYLQKPGQSPQLLIYKVSNRFSGVPDRFSGSGSGTDFTLKISRVEAEDVGVYYCSQNTHVPPTFGQGTKVEIERTVAAPSVFIFPPSDEQLKSGTASVVCLLNNFYPREAKVQWKVDNALQSGNSQESVTEQDSKDSTYSLSSTLTLSKADYEKHKVYACEVTHQGLSSPVTKSFNRGEC
114 % of control	GpH7-A5/GpH7-B3 variant K334_10E/GpL16-k0 (antibody, human IgG1, kappa, heterodimerized; mutation in the B3 H chain only; also called He Ab K334_10E) heavy 1: not shown heavy 2: not shown light: DIVMTQSPLSLPVTPGEPASISCQASESLVHSNRNTYLHWYLQKPGQSPQLLIYKVSNRFSGVPDRFSGSGSGTDFTLKISRVEAEDVGVYYCSQNTHVPPTFGQGTKVEIERTVAAPSVFIFPPSDEQLKSGTASVVCLLNNFYPREAKVQWKVDNALQSGNSQESVTEQDSKDSTYSLSSTLTLSKADYEKHKVYACEVTHQGLSSPVTKSFNRGEC
106 % of control	GpH7-A5/GpH7-B3 variant K334_08L/GpL16-k0 (antibody, human IgG1, kappa, heterodimerized; mutation in the B3 H chain only; also called He Ab K334_08L) heavy 1: not shown heavy 2: not shown light: DIVMTQSPLSLPVTPGEPASISCQASESLVHSNRNTYLHWYLQKPGQSPQLLIYKVSNRFSGVPDRFSGSGSGTDFTLKISRVEAEDVGVYYCSQNTHVPPTFGQGTKVEIERTVAAPSVFIFPPSDEQLKSGTASVVCLLNNFYPREAKVQWKVDNALQSGNSQESVTEQDSKDSTYSLSSTLTLSKADYEKHKVYACEVTHQGLSSPVTKSFNRGEC
155 % of control	GpH7-A5/GpH7-B3 variant K326_04F/GpL16-k0 (antibody, human IgG1, kappa, heterodimerized; mutation in the B3 H chain only; also called He Ab K326_04F) heavy 1: not shown heavy 2: not shown light: DIVMTQSPLSLPVTPGEPASISCQASESLVHSNRNTYLHWYLQKPGQSPQLLIYKVSNRFSGVPDRFSGSGSGTDFTLKISRVEAEDVGVYYCSQNTHVPPTFGQGTKVEIERTVAAPSVFIFPPSDEQLKSGTASVVCLLNNFYPREAKVQWKVDNALQSGNSQESVTEQDSKDSTYSLSSTLTLSKADYEKHKVYACEVTHQGLSSPVTKSFNRGEC
